The assay addresses A/Puerto Rico/8/1934 (H1) HA (influenza A virus A/Puerto Rico/8/1934 (H1N1)) (UniProt P03452).

We go through three substances from publication PMC6742228.

On to MAb C179 (antibody), for which the HA-pseudovirus neutralization titer (IC95), 293T cells was determined as 0.31 µg/mL and the Plaque reduction titer (IC50), replicating virus on MDCK cells was 27.7 µg/mL.

Turning to MAb CR6261 (antibody), the HA-pseudovirus neutralization titer (IC95), 293T cells is 0.09 µg/mL. MAb FI6 (antibody) gave an HA-pseudovirus neutralization titer (IC95), 293T cells of 0.11 µg/mL and a Plaque reduction titer (IC50), replicating virus on MDCK cells of 3.7 µg/mL.
